# From patent US20240109967A1 (University of Pennsylvania, published 2024)
# T1: recombinant human CD80-Fc chimera (carrier free, BioLegend) (human, UniProt P33681 35-242)
# T1 construct: Commercial protein; also called huCD80-Fc; huCD80; not shown: Fc of the commercial chimera, not described
# T1 sequence (looked up): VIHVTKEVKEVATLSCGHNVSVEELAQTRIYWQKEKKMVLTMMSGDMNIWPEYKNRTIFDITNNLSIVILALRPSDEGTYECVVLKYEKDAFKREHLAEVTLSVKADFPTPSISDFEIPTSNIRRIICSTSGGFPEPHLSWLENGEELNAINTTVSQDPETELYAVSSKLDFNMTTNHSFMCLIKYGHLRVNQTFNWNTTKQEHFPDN
# T2: recombinant human CD86-Fc chimera (carrier free, BioLegend) (human, UniProt P42081 24-247)
# T2 construct: Commercial protein; also called huCD86-Fc; huCD86; not shown: Fc of the commercial chimera, not described
# T2 sequence (looked up): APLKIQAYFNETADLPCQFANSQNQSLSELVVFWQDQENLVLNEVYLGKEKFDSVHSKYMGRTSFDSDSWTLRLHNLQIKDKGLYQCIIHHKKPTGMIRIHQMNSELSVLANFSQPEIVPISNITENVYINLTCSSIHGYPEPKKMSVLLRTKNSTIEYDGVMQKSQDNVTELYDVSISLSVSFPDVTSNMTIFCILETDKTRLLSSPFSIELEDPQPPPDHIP
# Legend:
# [1] = target: T1, recombinant human CD80-Fc chimera …; assay: ELISA: biotinylated cCTLA-4 ECD on plate-bound human CD80-Fc, streptavidin-AP, no antibody
# [2] = target: T2, recombinant human CD86-Fc chimera …; assay: ELISA: biotinylated cCTLA-4 ECD on plate-bound human CD86-Fc, streptavidin-AP, no antibody
# [3] = target: T3, human complement C1q (in normal human complement serum) (human, UniProt P02745 23-245; P02746 28-253; P02747 29-245); assay: complement fixation ELISA: antibody on captured cCTLA-4, human serum complement, anti-human C1q HRP
# T3 construct: also called human serum complement
# T3 sequence (P02745 23-245 limits assumed, chain 1 of 3): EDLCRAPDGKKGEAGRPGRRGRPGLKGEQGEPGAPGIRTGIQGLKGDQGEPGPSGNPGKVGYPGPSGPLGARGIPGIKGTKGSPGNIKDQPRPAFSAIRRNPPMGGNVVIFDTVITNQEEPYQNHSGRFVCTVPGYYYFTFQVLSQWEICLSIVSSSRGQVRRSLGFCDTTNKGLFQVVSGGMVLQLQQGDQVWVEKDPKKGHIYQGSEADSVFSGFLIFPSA
# T3 sequence (P02746 28-253 limits assumed, chain 2 of 3): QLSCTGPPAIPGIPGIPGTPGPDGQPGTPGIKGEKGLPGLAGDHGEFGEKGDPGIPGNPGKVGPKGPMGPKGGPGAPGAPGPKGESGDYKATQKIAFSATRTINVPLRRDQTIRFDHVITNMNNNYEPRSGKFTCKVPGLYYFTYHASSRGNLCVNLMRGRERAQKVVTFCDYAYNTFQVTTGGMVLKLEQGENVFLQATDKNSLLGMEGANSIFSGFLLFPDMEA
# T3 sequence (P02747 29-245 limits assumed, chain 3 of 3): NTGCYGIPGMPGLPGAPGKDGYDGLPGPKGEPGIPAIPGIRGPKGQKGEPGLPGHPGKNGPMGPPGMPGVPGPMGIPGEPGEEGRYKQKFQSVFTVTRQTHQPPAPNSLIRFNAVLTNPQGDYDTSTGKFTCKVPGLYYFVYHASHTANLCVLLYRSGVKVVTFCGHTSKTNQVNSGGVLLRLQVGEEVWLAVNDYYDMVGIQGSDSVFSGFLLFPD
binding result [1],binding result [2],binding result [3],Binder
binds,binds,,"recombinant canine CTLA-4 extracellular domain protein (receptor, not shown: small tags and cut ends, biotin on the Avi tag (BirA ligase) in the ELISA, panning and interaction assays, Cloned into pFUSE containing an HA tag, made in 293T cells; The SPR analyte is called soluble cCTLA-4 ECD, and biotinylation is not mentioned there; also called cCTLA-4; cCTLA-4 ECD) KGMHVAQPAVVLASSRGVASFVCEYGSSGNAAEVRVTVLRQAGSQMTEVCAATYTVEDELAFLDDSTCTGTSSGNKVNLTIQGLRAMDTGLYICKVELMYPPPYYVGMGNGTQIYVIDPEPCPDSD"
,,no binding (tested: 10 ug/ml antibody),"A1mut2 full-length canine IgG1 (IgGA) mAb (antibody, The HA tag is said to be appended to the carboxyl termini of the full-length IgGs and is placed here on the heavy chain; also called A1mut2 mAb; A1mut2 antibody) heavy: EVQLVETGGDLVKPGGSLRLSCVASGFSFSSYAMNWVRQAPEKGLQLVGGINSGGSSTYYTDAVKGRFTISRDNAKNTVYLQMNSLRAEDTAVYYCAISNWAYWGQGTLVTVSSASTTAPSVFPLAPSCGSTSGSTVALACLVSGYFPEPVTVSWNSGSLTSGVHTFPSVLQSSGLYSLSSMVTVPSSRWPSETFTCNVVHPASNTKVDKPVFNECRCTDTPPCPVPEPLGGPSVLIFPPKPKDILRITRTPEVTCVVLDLGREDPEVQISWFVDGKEVHTAKTQSREQQFNGTYRVVSVLPIEHQDWLTGKEFKCRVNHIDLPSPIERTISKARGRAHKPSVYVLPPSPKELSSSDTVSVTCLIKDFYPPDIDVEWQSNGQQEPERKHRMTPPQLDEDGSYFLYSKLSVDKSRWQQGDPFTCAVMHETLQNHYTDLSLSHSPGKGGGSGGGSYPYDVPDYA light: QAVLNQPASVSGSLGQRVTISCTGSSSDIGKSYVAWYQQLPGTGPRTLINVDGNRASGVPDRFSVSRSGNTATLTISGLQAEDEADYHCSSWDWSLHTYVFGSGTQLTILGQPKASPSVTLFPPSSEELGANKATLVCLISDFYPSGVTVAWKADGSPITQGVETTKPSKQSNNKYAASSYLSLTPDKWKSHSSFSCLVTHEGSTVEKKVAPAECS"
,,no binding (tested: 10 ug/ml antibody),"A1mut2 full-length canine IgG4 (IgGD) mAb, HA-tagged (antibody, also called A1mut2 IgGD) heavy: EVQLVETGGDLVKPGGSLRLSCVASGFSFSSYAMNWVRQAPEKGLQLVGGINSGGSSTYYTDAVKGRFTISRDNAKNTVYLQMNSLRAEDTAVYYCAISNWAYWGQGTLVTVSSASTTAPSVFPLAPSCGSTSGSTVALACLVSGYFPEPVTVSWNSGSLTSGVHTFPSVLQSSGLYSLSSMVTVPSSRWPSETFTCNVVHPASNTKVDKPVPKESTCKCISPCPVPESLGGPSVFIFPPKPKDILRITRTPEITCVVLDLGREDPEVQISWFVDGKEVHTAKTQPREQQFNSTYRVVSVLPIEHQDWLTGKEFKCRVNHIGLPSPIERTISKARGQAHQPSVYVLPPSPKELSSSDTVTLTCLIKDFFPPEIDVEWQSNGQPEPESKYHTTAPQLDEDGSYFLYSKLSVDKSRWQQGDPFTCAVMHEALQNHYTDLSLSHSPGKGGGSGGGSYPYDVPDYA light: QAVLNQPASVSGSLGQRVTISCTGSSSDIGKSYVAWYQQLPGTGPRTLINVDGNRASGVPDRFSVSRSGNTATLTISGLQAEDEADYHCSSWDWSLHTYVFGSGTQLTILGQPKASPSVTLFPPSSEELGANKATLVCLISDFYPSGVTVAWKADGSPITQGVETTKPSKQSNNKYAASSYLSLTPDKWKSHSSFSCLVTHEGSTVEKKVAPAECS"
